Data reported in patent EP1469082A1 (Boehringer Ingelheim International GmbH, dated 2004).

B1: CDC20 C-terminal peptide CLRREREKASTSKSSLIHQGIR (peptide)
peptide: CLRREREKASTSKSSLIHQGIR
notes: Synthetic peptide; also called CDC20 C-terminus; CDC20 peptide
B2: CDH1 C-terminal peptide CFSKTRSTKESVSVLNLFTRIR (peptide)
peptide: CFSKTRSTKESVSVLNLFTRIR
notes: Synthetic peptide; also called CDH1 C-terminus; CDH1 peptide

Assays:
[1] = target: T1, APC7 C-terminal part (amino acids 298 to 565) comprising the block of TPRs (human, UniProt Q9UJX3 298-565, limits assumed); experiment: peptide binding assay with recombinant APC7 fragments
T1 construct: Recombinantly expressed fragment; also called APC7 TPR domain; APC7 C-terminal fragment
T1 sequence (Q9UJX3 298-565 limits assumed): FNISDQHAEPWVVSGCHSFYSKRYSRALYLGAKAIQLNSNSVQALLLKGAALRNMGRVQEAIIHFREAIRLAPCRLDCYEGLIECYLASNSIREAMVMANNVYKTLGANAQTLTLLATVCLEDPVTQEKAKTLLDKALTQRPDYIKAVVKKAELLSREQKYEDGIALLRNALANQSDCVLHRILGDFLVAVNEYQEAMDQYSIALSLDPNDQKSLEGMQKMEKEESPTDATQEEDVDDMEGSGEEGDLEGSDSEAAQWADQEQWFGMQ

[2] = target: T2, recombinant HisHA-tagged APC8 (UniProt Q9UJX2 1-597); experiment: peptide matrix pull-down from insect cell lysate, western blot
T2 construct: Expressed from baculovirus and used as insect cell lysate; also called APC8/CDC23; not shown: HisHA tag
T2 sequence (Q9UJX2 whole entry): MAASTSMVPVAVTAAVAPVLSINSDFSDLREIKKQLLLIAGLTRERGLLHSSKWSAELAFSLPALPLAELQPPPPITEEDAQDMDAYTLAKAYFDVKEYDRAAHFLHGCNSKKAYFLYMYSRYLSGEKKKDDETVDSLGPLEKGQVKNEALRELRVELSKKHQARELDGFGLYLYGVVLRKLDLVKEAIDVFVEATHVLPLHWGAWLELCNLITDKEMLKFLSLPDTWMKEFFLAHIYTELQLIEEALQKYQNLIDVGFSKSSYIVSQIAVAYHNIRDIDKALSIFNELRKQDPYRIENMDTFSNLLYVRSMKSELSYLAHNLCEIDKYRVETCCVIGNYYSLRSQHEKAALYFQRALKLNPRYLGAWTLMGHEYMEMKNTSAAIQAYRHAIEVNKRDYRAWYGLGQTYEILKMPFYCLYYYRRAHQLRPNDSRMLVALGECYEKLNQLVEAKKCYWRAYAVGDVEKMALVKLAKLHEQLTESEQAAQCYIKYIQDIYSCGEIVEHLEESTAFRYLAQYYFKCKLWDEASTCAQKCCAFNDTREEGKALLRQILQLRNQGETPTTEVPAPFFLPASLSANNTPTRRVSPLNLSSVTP

[3] = target: T3, recombinant HisHA-tagged APC5 (UniProt Q9UJX4 1-755); experiment: as above
T3 construct: Expressed from baculovirus and used as insect cell lysate; not shown: HisHA tag
T3 sequence (Q9UJX4 whole entry): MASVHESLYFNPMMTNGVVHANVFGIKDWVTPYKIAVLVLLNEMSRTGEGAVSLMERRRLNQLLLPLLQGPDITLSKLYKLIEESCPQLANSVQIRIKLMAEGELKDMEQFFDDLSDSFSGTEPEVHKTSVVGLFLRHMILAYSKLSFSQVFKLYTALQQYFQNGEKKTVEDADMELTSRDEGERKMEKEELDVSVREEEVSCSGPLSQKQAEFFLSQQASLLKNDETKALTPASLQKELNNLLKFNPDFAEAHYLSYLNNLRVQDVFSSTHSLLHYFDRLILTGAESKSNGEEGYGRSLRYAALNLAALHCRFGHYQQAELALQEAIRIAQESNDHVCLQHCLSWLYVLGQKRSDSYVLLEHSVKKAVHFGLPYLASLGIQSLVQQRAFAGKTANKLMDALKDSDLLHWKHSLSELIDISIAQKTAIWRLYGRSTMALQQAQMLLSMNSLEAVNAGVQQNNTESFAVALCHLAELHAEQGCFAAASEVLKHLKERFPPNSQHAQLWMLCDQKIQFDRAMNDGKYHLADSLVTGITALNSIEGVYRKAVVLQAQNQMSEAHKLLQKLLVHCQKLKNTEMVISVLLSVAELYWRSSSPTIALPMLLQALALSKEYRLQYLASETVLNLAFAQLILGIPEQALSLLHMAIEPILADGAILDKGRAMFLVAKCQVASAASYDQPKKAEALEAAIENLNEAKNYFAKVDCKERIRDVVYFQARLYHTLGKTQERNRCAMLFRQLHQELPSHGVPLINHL

[4] = target: T4, APC7 fragment containing the N-terminal 297 amino acids (human, UniProt Q9UJX3 1-297, limits assumed); experiment: peptide binding assay with recombinant APC7 fragments
T4 construct: Recombinantly expressed fragment; also called APC7 N-terminal fragment
T4 sequence (Q9UJX3 1-297 limits assumed): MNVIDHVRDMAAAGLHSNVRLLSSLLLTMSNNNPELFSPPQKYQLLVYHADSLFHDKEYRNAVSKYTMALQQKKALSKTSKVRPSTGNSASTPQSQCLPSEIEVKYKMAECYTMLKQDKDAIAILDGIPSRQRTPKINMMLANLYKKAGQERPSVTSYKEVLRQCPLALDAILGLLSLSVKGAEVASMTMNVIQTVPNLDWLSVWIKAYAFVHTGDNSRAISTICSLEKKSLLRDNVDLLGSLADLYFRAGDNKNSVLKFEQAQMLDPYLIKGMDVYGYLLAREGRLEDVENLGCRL

[5] = target: T5, native CDC26 from late-eluting Q column fractions of HeLa extract (human, UniProt Q8NHZ8 1-85); experiment: peptide matrix pull-down from late-eluting Q column fractions, western blot
T5 construct: Endogenous protein in anion exchange fractions
T5 sequence (Q8NHZ8 whole entry): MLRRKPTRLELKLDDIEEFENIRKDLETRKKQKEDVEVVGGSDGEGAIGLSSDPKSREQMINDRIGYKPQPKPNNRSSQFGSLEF

[6] = target: T6, recombinant HisHA-tagged APC3 (human, UniProt P30260 1-824); experiment: peptide matrix pull-down from insect cell lysate, western blot
T6 construct: Expressed from baculovirus in Sf9 or Hi5 cells and used as insect cell lysate; also called APC3/CDC27; not shown: HisHA tag
T6 sequence (P30260 whole entry): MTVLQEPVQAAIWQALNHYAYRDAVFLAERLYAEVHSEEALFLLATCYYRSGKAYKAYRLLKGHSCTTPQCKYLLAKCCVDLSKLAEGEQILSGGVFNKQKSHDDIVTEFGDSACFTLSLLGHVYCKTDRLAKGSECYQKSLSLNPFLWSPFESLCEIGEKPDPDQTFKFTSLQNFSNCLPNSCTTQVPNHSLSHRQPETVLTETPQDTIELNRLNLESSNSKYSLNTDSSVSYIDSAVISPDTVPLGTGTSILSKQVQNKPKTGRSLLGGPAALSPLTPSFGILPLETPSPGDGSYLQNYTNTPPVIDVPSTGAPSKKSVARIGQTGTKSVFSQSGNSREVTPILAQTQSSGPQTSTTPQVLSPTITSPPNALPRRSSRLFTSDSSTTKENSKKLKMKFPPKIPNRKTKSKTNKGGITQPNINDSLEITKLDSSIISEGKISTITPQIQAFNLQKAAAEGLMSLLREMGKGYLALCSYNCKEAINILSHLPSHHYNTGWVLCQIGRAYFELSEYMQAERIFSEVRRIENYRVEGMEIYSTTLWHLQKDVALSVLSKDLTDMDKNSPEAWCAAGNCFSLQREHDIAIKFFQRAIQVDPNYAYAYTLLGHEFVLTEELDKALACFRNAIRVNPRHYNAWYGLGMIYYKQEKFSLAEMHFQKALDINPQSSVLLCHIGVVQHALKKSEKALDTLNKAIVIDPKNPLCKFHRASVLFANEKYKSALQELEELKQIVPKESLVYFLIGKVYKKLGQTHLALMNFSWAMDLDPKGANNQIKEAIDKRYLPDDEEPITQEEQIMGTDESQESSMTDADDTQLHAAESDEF

[7] = target: T7, holo-APC (Anaphase Promoting Complex / cyclosome) from HeLa cells (human, UniProt Q9H1A4 1-1944; Q9UJX6 1-822; P30260 1-824; Q9UJX5 1-808; Q9UJX4 1-755; Q13042 …); experiment: peptide matrix pull-down from APC-containing fractions, western blot
T7 construct: Native multisubunit complex with 11 known subunits; It carries substoichiometric amounts of endogenous CDH1; also called immunopurified APC; APC-IPs

Binder | binding result [1] | binding result [2] | binding result [3] | binding result [4] | binding result [5] | binding result [6] | binding result [7]
B1 | binds | no binding | no binding | – | – | – | –
B2 | binds | no binding | no binding | no binding | no binding | – | –
CAVWSLSSCKPGFGVD [control peptide CAVWSLSSCKPGFGVD] | – | – | – | – | – | no binding | no binding
